From article PMC4360740, “Novel Type II and Monomeric NAD^+ Specific Isocitrate Dehydrogenases: Phylogenetic Affinity, Enzymatic Characterization, and Evolutionary Implication” (Scientific Reports, 2015)
Where two headings read alike, the source gives them in different places. Each block holds one molecule with its values, some of them ahead of it.

How the values were obtained:
CaIDH [1] = system: T1, CaIDH; settings: read-out: NADP^+ / Km; 1.0 mM isocitrate fixed; 35 mM Tris-HCl pH 7.5, 2 mM MgCl2 or MnCl2, 25°C; Methods print the second mutation as Asp594Arg
T1 construct: gene IDH

[2] = target: Ostreococcus lucimarinus CCE9901 isocitrate dehydrogenase (Ostreococcus lucimarinus CCE9901); experiment: SEC; Superdex 200 10/300 column, 0.05 M potassium phosphate pH 7.0, 0.15 M NaCl, 0.01% sodium azide, flow 0.5 ml/min; mass estimated against protein standards
[3] = target: Ostreococcus lucimarinus CCE9901 isocitrate dehydrogenase (Ostreococcus lucimarinus CCE9901); experiment: MALDI-TOF/TOF mass spectrometry; AB SCIEX MALDI TOF-TOF 5800, linear high mass positive-ion mode, SA matrix, TFA as ionization auxiliary reagent
[4] = target: Campylobacter sp. FOBRC14 isocitrate dehydrogenase (Campylobacter sp. FOBRC14); experiment: SEC; Superdex 200 10/300 column, 0.05 M potassium phosphate pH 7.0, 0.15 M NaCl, 0.01% sodium azide, flow 0.5 ml/min; mass estimated against protein standards
CaIDH [5] = system: T1, CaIDH; settings: read-out: NAD^+ / Km; 1.0 mM isocitrate fixed; 35 mM Tris-HCl pH 7.5, 2 mM MgCl2 or MnCl2, 25°C; Methods print the second mutation as Asp594Arg
[6] = system: NC(=O)c1ccc[n+]([C@@H]2O[C@H](COP(=O)(O)OP(=O)(O)OC[C@H]3O[C@@H](n4cnc5c(N)ncnc54)[C@H](O)[C@@H]3O)[C@@H](O)[C@H]2O)c1; experiment: purified protein; settings: 1.0 mM isocitrate fixed, 35 mM Tris-HCl pH 7.5, 2 mM MgCl2 or MnCl2, 25°C, varied: cofactor
[7] = system: NC(=O)c1ccc[n+]([C@@H]2O[C@H](COP(=O)(O)OP(=O)(O)OC[C@H]3O[C@@H](n4cnc5c(N)ncnc54)[C@H](OP(=O)(O)O)[C@@H]3O)[C@@H](O)[C@H]2O)c1; experiment: purified protein; settings: 1.0 mM isocitrate fixed, 35 mM Tris-HCl pH 7.5, 2 mM MgCl2 or MnCl2, 25°C, varied: cofactor
purified protein [8] = substrate: NC(=O)c1ccc[n+]([C@@H]2O[C@H](COP(=O)(O)OP(=O)(O)OC[C@H]3O[C@@H](n4cnc5c(N)ncnc54)[C@H](OP(=O)(O)O)[C@@H]3O)[C@@H](O)[C@H]2O)c1; experiment: purified protein; type: biochemical, Ostreococcus sp. 'lucimarinus'; settings: 1.0 mM isocitrate fixed, 35 mM Tris-HCl pH 7.5, 2 mM MgCl2 or MnCl2, 25°C, varied: cofactor
purified protein [9] = substrate: NC(=O)c1ccc[n+]([C@@H]2O[C@H](COP(=O)(O)OP(=O)(O)OC[C@H]3O[C@@H](n4cnc5c(N)ncnc54)[C@H](O)[C@@H]3O)[C@@H](O)[C@H]2O)c1; experiment: purified protein; type: biochemical, Ostreococcus sp. 'lucimarinus'; settings: 1.0 mM isocitrate fixed, 35 mM Tris-HCl pH 7.5, 2 mM MgCl2 or MnCl2, 25°C, varied: cofactor
purified protein [10] = substrate: NC(=O)c1ccc[n+]([C@@H]2O[C@H](COP(=O)(O)OP(=O)(O)OC[C@H]3O[C@@H](n4cnc5c(N)ncnc54)[C@H](OP(=O)(O)O)[C@@H]3O)[C@@H](O)[C@H]2O)c1; experiment: purified protein; type: biochemical, Micromonas commoda; settings: 1.0 mM isocitrate fixed, 35 mM Tris-HCl pH 7.5, 2 mM MgCl2 or MnCl2, 25°C, varied: cofactor
purified protein [11] = substrate: NC(=O)c1ccc[n+]([C@@H]2O[C@H](COP(=O)(O)OP(=O)(O)OC[C@H]3O[C@@H](n4cnc5c(N)ncnc54)[C@H](O)[C@@H]3O)[C@@H](O)[C@H]2O)c1; experiment: purified protein; type: biochemical, Micromonas commoda; settings: 1.0 mM isocitrate fixed, 35 mM Tris-HCl pH 7.5, 2 mM MgCl2 or MnCl2, 25°C, varied: cofactor

Molecule: NC(=O)c1ccc[n+]([C@@H]2O[C@H](COP(=O)(O)OP(=O)(O)OC[C@H]3O[C@@H](n4cnc5c(N)ncnc54)[C@H](OP(=O)(O)O)[C@@H]3O)[C@@H](O)[C@H]2O)c1 [NADP^+]
Km (CaIDH [1]): 11.4 ± 4.6 µM

stoichiometry N [2]: 2
stoichiometry N [3]: 2
Molecule: Ostreococcus lucimarinus CCE9901 isocitrate dehydrogenase (enzyme)

fraction eluting as dimer [4]: < 5%
Molecule: Campylobacter sp. FOBRC14 isocitrate dehydrogenase (enzyme)

Molecule: NC(=O)c1ccc[n+]([C@@H]2O[C@H](COP(=O)(O)OP(=O)(O)OC[C@H]3O[C@@H](n4cnc5c(N)ncnc54)[C@H](O)[C@@H]3O)[C@@H](O)[C@H]2O)c1 [NAD^+]
Km (CaIDH [5]): 493 ± 52.5 µM

Molecule: CaIDH (Campylobacter sp. FOBRC14)
Km [6]: 28.9 ± 4.5 µM
kcat [6]: 7 ± 0.8 s⁻¹
kcat/Km [6]: 242000 M⁻¹ s⁻¹
Km [7]: 513.2 ± 14.9 µM
kcat [7]: 1.9 ± 0.1 s⁻¹
kcat/Km [7]: 4000 M⁻¹ s⁻¹

B1: OlIDH (Ostreococcus lucimarinus CCE9901) (protein)
chain: MSANASKITAAPMVYVRGEEMTAYVMDLIRAKWIEPRVDTTAWREFDLRAKNRDDTEDQVLRDVIEAGKAVKAIFKEPTVTPTADQVKRLGLRKSWGSPNGAMRRGWNGITISRDTIHIDGVELGYKKPVFFERHAVGGEYAAGYKNVGKGTLVTTFTPSEGPDAGKPVEVDSRTITDNEAAVVTYHNPYDNVHELARFFFGRCLEAKITPYVVTKKTVFKWQEPFWQIMKKVFDEEYKSKFVDAGVMKSGDELVHLLSDAATMKLVQWRQGGFGMAAHNYDGDVLTDELAQIHKSPGFITSNLVGVDENGTLIKEFEASHGTVADMDEARLRGEETSLNPLGMVEGLIGAMNHAADVHNVDKERTLAFTAKMRAVIHQLFREGKGTRDLSGPSGLTTEQFVDAVAERL
notes: full-length synthetic codon-optimised gene in pET-28b(+) NdeI/XhoI, 6xHis-tagged, E. coli Rosetta (DE3); about 46 kDa subunit, 415 residues as used in CD calculation; homodimer 93 kDa by MALDI
Km (purified protein [8]): 2211 ± 75 µM
kcat (purified protein [8]): 10 ± 1.6 s⁻¹
kcat/Km (purified protein [8]): 4500 M⁻¹ s⁻¹
Km (purified protein [9]): 136.6 ± 13.6 µM
kcat (purified protein [9]): 60.6 ± 3.8 s⁻¹
kcat/Km (purified protein [9]): 444000 M⁻¹ s⁻¹

B2: OlIDH (Ostreococcus lucimarinus CCE9901; D326R/M327H) (protein)
chain: MSANASKITAAPMVYVRGEEMTAYVMDLIRAKWIEPRVDTTAWREFDLRAKNRDDTEDQVLRDVIEAGKAVKAIFKEPTVTPTADQVKRLGLRKSWGSPNGAMRRGWNGITISRDTIHIDGVELGYKKPVFFERHAVGGEYAAGYKNVGKGTLVTTFTPSEGPDAGKPVEVDSRTITDNEAAVVTYHNPYDNVHELARFFFGRCLEAKITPYVVTKKTVFKWQEPFWQIMKKVFDEEYKSKFVDAGVMKSGDELVHLLSDAATMKLVQWRQGGFGMAAHNYDGDVLTDELAQIHKSPGFITSNLVGVDENGTLIKEFEASHGTVARHDEARLRGEETSLNPLGMVEGLIGAMNHAADVHNVDKERTLAFTAKMRAVIHQLFREGKGTRDLSGPSGLTTEQFVDAVAERL
notes: as for B1
Km (purified protein [8]): 8.2 ± 1.9 µM
kcat (purified protein [8]): 1.8 ± 0.2 s⁻¹
kcat/Km (purified protein [8]): 220000 M⁻¹ s⁻¹
Km (purified protein [9]): 2941.3 ± 75.8 µM
kcat (purified protein [9]): 29.1 ± 7.9 s⁻¹
kcat/Km (purified protein [9]): 10000 M⁻¹ s⁻¹

B3: MiIDH (Micromonas commoda) (protein)
chain: MAAASAGGKIQAAPMVYVAGEEMTRYTMDLILERWIKPHVDTSAWEFFDLRAKNRDDTEDQVLRDVISAGARLKAIFKEPTITPTADQVKRLGLKKAWGSPNGAMRRGWNGITISRDTIHIDGVELGYKKPVFFERHAVGGEYSAGYKIVGKGKLTTTFVPEAGGEPIVVDDRKITDDLNAVVAYHNPLDNVAHLARIFFGRCLDAGIVPYVVTKKTVFKWQEPFWESMKTVFDAEFKQKFYEKGVMKPGSELVHLLSDAATMKLVVWTDGGFGMAAHNYDGDVLTDELAQVHKSPGFITSNLVGVDDNGTLIKEFEASHGTVTDMDEARLRGEETSLNPLGMVEGLIGAMNHAADVHGGSSGVHPWTGKLRAVIHKLFREGRGTRDLCGAGGLTTEQFIDAVAEEL
notes: full-length synthetic codon-optimised gene in pET-28b(+) NdeI/XhoI, 6xHis-tagged, E. coli Rosetta (DE3); described as homodimeric
Km (purified protein [10]): 1827 ± 42.4 µM
kcat (purified protein [10]): 1.4 ± 0.2 s⁻¹
kcat/Km (purified protein [10]): 800 M⁻¹ s⁻¹
Km (purified protein [11]): 126 ± 5.3 µM
kcat (purified protein [11]): 22.5 ± 2 s⁻¹
kcat/Km (purified protein [11]): 179000 M⁻¹ s⁻¹
